Reference: the Human Domainome abundance scans (Beltran et al. 2025)
± gives the uncertainty stated by the source.

B1: RNA-binding E3 ubiquitin-protein ligase MEX3C, residues 325 to 391; numbered along this chain, Q5U5Q3 (parent)
chain: GQTTVQVRVPYRVVGLVVGPKGATIKRIQQQTHTYIVTPSRDKEPVFEVTGMPENVDRAREEIEMHI

Variants of: B1
Test: abundance fitness (aPCA) (normalised: wild type 0, dead -1); higher = more abundant; growth selection in yeast, the domain comes from the species named
Conditions: Homo sapiens

Variant	abundance fitness
T38V	-0.174 ± 0.094
T38W	-0.384 ± 0.081
T38Y	0.017 ± 0.28
P39A	-0.497 ± 0.079
P39C	-0.221 ± 0.13
P39D	-0.383 ± 0.11
P39E	-0.424 ± 0.088
P39F	-0.286 ± 0.14
P39G	-0.467 ± 0.07
P39H	-0.402 ± 0.17
P39I	-0.57 ± 0.24
P39K	-0.149 ± 0.078
P39M	-0.502 ± 0.12
P39N	-0.234 ± 0.16
P39Q	-0.477 ± 0.12
P39R	-0.276 ± 0.059
P39T	-0.409 ± 0.089
P39V	-0.476 ± 0.074
P39W	-0.58 ± 0.11
P39Y	-0.328 ± 0.26
S40A	0.021 ± 0.067
S40C	-0.332 ± 0.093
S40D	0.138 ± 0.1
S40E	-0.029 ± 0.1

Variant	abundance fitness
S40F	-0.349 ± 0.13
S40G	0.03 ± 0.047
S40H	-0.352 ± 0.23
S40I	-0.34 ± 0.24
S40K	-0.072 ± 0.081
S40L	-0.133 ± 0.057
S40M	-0.016 ± 0.1
S40N	0.032 ± 0.13
S40P	0.08 ± 0.072
S40Q	-0.033 ± 0.1
S40T	-0.081 ± 0.092
S40V	-0.229 ± 0.066
S40W	-0.215 ± 0.07
S40Y	-0.137 ± 0.33
R41A	0.017 ± 0.056
R41C	-0.067 ± 0.082
R41D	0.048 ± 0.11
R41E	-0.021 ± 0.074
R41F	-0.343 ± 0.17
R41G	-0.154 ± 0.037
R41H	-0.109 ± 0.14
R41I	-0.15 ± 0.17
R41K	0.019 ± 0.15
R41L	-0.21 ± 0.06

Variant	abundance fitness
R41M	-0.168 ± 0.078
R41N	-0.058 ± 0.16
R41P	0.071 ± 0.094
R41S	-0.047 ± 0.062
R41T	-0.021 ± 0.083
R41V	-0.088 ± 0.063
R41W	-0.245 ± 0.073
R41Y	-0.212 ± 0.28
D42A	-0.292 ± 0.056
D42C	-0.425 ± 0.12
D42F	-0.198 ± 0.17
D42G	0.099 ± 0.04
D42H	-0.191 ± 0.091
D42I	-0.342 ± 0.14
D42K	-0.139 ± 0.11
D42L	-0.263 ± 0.066
D42M	-0.128 ± 0.089
D42N	-0.071 ± 0.1
D42P	-1.01 ± 0.31
D42Q	-0.122 ± 0.11
D42R	-0.408 ± 0.052
D42S	-0.332 ± 0.08
D42T	-0.245 ± 0.078
D42V	-0.465 ± 0.069

Variant	abundance fitness
D42W	-0.335 ± 0.088
D42Y	-0.181 ± 0.1
K43A	0.058 ± 0.05
K43C	-0.1 ± 0.067
K43D	0.131 ± 0.078
K43E	-0.191 ± 0.072
K43F	-0.431 ± 0.13
K43G	0.108 ± 0.035
K43H	0.012 ± 0.093
K43I	-0.583 ± 0.14
K43L	-0.579 ± 0.081
K43M	0.125 ± 0.078
K43N	-0.093 ± 0.11
K43P	-0.565 ± 0.1
K43Q	-0.059 ± 0.072
K43R	-0.133 ± 0.039
K43S	0.12 ± 0.048
K43T	-0.05 ± 0.066
K43V	-0.423 ± 0.069
K43W	-0.435 ± 0.072
K43Y	-0.46 ± 0.15
E44A	-0.177 ± 0.068
E44C	-0.834 ± 0.26
E44F	-0.906 ± 0.31

Variant	abundance fitness
E44G	-0.492 ± 0.059
E44K	-0.697 ± 0.17
E44L	-0.582 ± 0.094
E44M	-0.687 ± 0.25
E44N	-0.222 ± 0.17
E44P	-0.374 ± 0.18
E44Q	-0.305 ± 0.23
E44R	-0.719 ± 0.1
E44S	-0.459 ± 0.16
E44T	-0.798 ± 0.37
E44V	-0.472 ± 0.08
E44W	-0.695 ± 0.11
P45A	-0.422 ± 0.083
P45C	-0.47 ± 0.092
P45D	-0.677 ± 0.12
P45E	-0.375 ± 0.09
P45F	-0.417 ± 0.13
P45G	-0.434 ± 0.063
P45H	-0.502 ± 0.11
P45I	-0.622 ± 0.29
P45K	-0.42 ± 0.18
P45L	-0.479 ± 0.13
P45M	-0.467 ± 0.16
P45N	-0.821 ± 0.27

Variant	abundance fitness
P45Q	-0.458 ± 0.13
P45R	-0.564 ± 0.076
P45S	-0.387 ± 0.072
P45T	-0.493 ± 0.12
P45V	-0.919 ± 0.17
V46A	-0.676 ± 0.083
V46C	-0.645 ± 0.14
V46E	-0.767 ± 0.11
V46F	-0.503 ± 0.16
V46G	-0.7 ± 0.07
V46H	-0.579 ± 0.13
V46I	-0.093 ± 0.072
V46K	-0.321 ± 0.1
V46L	-0.332 ± 0.061
V46M	-0.361 ± 0.081
V46N	-0.62 ± 0.24
V46P	-0.66 ± 0.1
V46Q	-0.621 ± 0.13
V46R	-0.607 ± 0.078
V46S	-0.774 ± 0.11
V46T	-0.526 ± 0.1
V46W	-0.662 ± 0.099
V46Y	-0.146 ± 0.11
F47A	-0.889 ± 0.19

Variant	abundance fitness
F47C	-0.411 ± 0.13
F47D	-1.01 ± 0.35
F47E	-0.658 ± 0.11
F47G	-0.661 ± 0.07
F47I	-0.853 ± 0.35
F47M	-0.808 ± 0.18
F47N	-0.442 ± 0.22
F47P	-0.974 ± 0.32
F47Q	-0.648 ± 0.19
F47R	-0.706 ± 0.074
F47S	-0.835 ± 0.14
F47T	-0.511 ± 0.15
F47V	-0.792 ± 0.11
F47W	-0.412 ± 0.093
F47Y	-0.677 ± 0.25
E48A	-0.356 ± 0.064
E48C	-0.357 ± 0.1
E48D	-0.534 ± 0.14
E48F	-0.068 ± 0.12
E48G	-0.748 ± 0.067
E48H	-0.155 ± 0.14
E48I	-0.007 ± 0.16
E48L	-0.029 ± 0.057
E48M	-0.04 ± 0.079

Variant	abundance fitness
E48N	-0.733 ± 0.43
E48P	-0.771 ± 0.14
E48Q	-0.204 ± 0.095
E48S	-0.245 ± 0.08
E48V	-0.292 ± 0.06
E48W	-0.124 ± 0.067
V49A	-0.682 ± 0.12
V49C	-0.668 ± 0.2
V49D	-0.71 ± 0.34
V49F	-0.842 ± 0.4
V49G	-0.469 ± 0.066
V49I	0.129 ± 0.068
V49K	-0.702 ± 0.18
V49L	-0.62 ± 0.085
V49M	-0.793 ± 0.21
V49N	-0.675 ± 0.43
V49P	-1.34 ± 0.48
V49Q	-0.901 ± 0.35
V49R	-0.788 ± 0.087
V49S	-0.843 ± 0.13
V49T	-0.626 ± 0.12
V49W	-0.99 ± 0.17
V49Y	-0.804 ± 0.42
T50C	-0.313 ± 0.12

Variant	abundance fitness
T50E	-0.835 ± 0.21
T50F	-0.618 ± 0.16
T50G	-0.651 ± 0.08
T50H	-0.315 ± 0.19
T50I	-0.494 ± 0.16
T50K	-0.52 ± 0.15
T50L	-0.547 ± 0.13
T50M	-0.378 ± 0.11
T50N	-0.792 ± 0.35
T50P	-0.916 ± 0.33
T50Q	-0.624 ± 0.099
T50S	-0.254 ± 0.063
T50V	-0.745 ± 0.12
T50W	-0.545 ± 0.11
T50Y	-0.598 ± 0.21
G51C	-1.05 ± 0.25
G51D	-0.656 ± 0.11
G51E	-0.599 ± 0.13
G51F	-0.701 ± 0.38
G51H	-0.789 ± 0.32
G51K	-0.448 ± 0.2
G51L	-0.794 ± 0.16
G51P	-0.78 ± 0.23
G51Q	-0.776 ± 0.36

Variant	abundance fitness
G51R	-0.726 ± 0.1
G51S	-0.918 ± 0.23
G51T	-1.05 ± 0.26
G51W	-0.951 ± 0.26
G51Y	-0.918 ± 0.25
M52A	-0.141 ± 0.079
M52C	-0.194 ± 0.1
M52D	-0.13 ± 0.12
M52E	-0.2 ± 0.095
M52F	-0.206 ± 0.096
M52G	-0.596 ± 0.071
M52H	-0.515 ± 0.33
M52I	-0.183 ± 0.17
M52K	-0.075 ± 0.083
M52L	-0.04 ± 0.055
M52N	-0.99 ± 0.49
M52Q	-0.021 ± 0.095
M52R	-0.167 ± 0.044
M52S	0.006 ± 0.073
M52T	0.185 ± 0.071
M52V	-0.482 ± 0.082
M52W	-0.369 ± 0.068
M52Y	-0.19 ± 0.13
P53A	-0.141 ± 0.057

Variant	abundance fitness
P53C	-0.514 ± 0.13
P53D	-0.597 ± 0.27
P53F	-0.488 ± 0.16
P53G	-0.541 ± 0.082
P53I	-0.689 ± 0.25
P53K	-0.012 ± 0.1
P53M	-0.433 ± 0.11
P53N	-0.295 ± 0.21
P53Q	-0.173 ± 0.079
P53R	-0.167 ± 0.05
P53S	-0.279 ± 0.077
P53T	-0.375 ± 0.087
P53V	-0.734 ± 0.13
P53W	-0.871 ± 0.17
E54A	-0.079 ± 0.053
E54C	-0.482 ± 0.11
E54D	-0.119 ± 0.092
E54F	-0.815 ± 0.23
E54G	-0.179 ± 0.044
E54H	-0.332 ± 0.15
E54I	-0.377 ± 0.11
E54K	-0.519 ± 0.17
E54L	-0.325 ± 0.079
E54M	-0.575 ± 0.15

Variant	abundance fitness
E54N	-0.419 ± 0.18
E54P	-0.235 ± 0.071
E54Q	-0.321 ± 0.14
E54R	-0.248 ± 0.049
E54S	-0.213 ± 0.062
E54T	-0.267 ± 0.089
E54V	-0.485 ± 0.073
E54W	-0.174 ± 0.074
E54Y	-0.382 ± 0.13
N55A	-0.146 ± 0.064
N55C	-0.544 ± 0.16
N55D	0.033 ± 0.067
N55E	-0.401 ± 0.08
N55F	-0.711 ± 0.24
N55G	-0.281 ± 0.048
N55I	-0.646 ± 0.18
N55K	-0.647 ± 0.13
N55L	-0.885 ± 0.15
N55M	-0.541 ± 0.11
N55Q	0.138 ± 0.092
N55R	-0.789 ± 0.084
N55S	-0.426 ± 0.079
N55T	-0.627 ± 0.14
N55V	-0.8 ± 0.11

Variant	abundance fitness
N55W	-1.17 ± 0.48
N55Y	-0.811 ± 0.21
V56A	-0.585 ± 0.089
V56C	0.009 ± 0.097
V56D	-0.75 ± 0.19
V56E	-0.927 ± 0.22
V56H	-0.712 ± 0.42
V56I	-0.21 ± 0.094
V56K	-0.402 ± 0.11
V56L	-0.574 ± 0.1
V56M	-0.455 ± 0.19
V56N	-1.11 ± 0.48
V56Q	-0.455 ± 0.1
V56R	-0.799 ± 0.081
V56S	-0.496 ± 0.081
V56T	-0.286 ± 0.096
V56W	-0.809 ± 0.12
V56Y	-0.62 ± 0.18
D57A	0.151 ± 0.055
D57C	-0.072 ± 0.094
D57E	0.137 ± 0.049
D57F	-0.176 ± 0.13
D57G	-0.198 ± 0.044
D57H	-0.472 ± 0.36

Variant	abundance fitness
D57I	-0.11 ± 0.11
D57K	0.22 ± 0.088
D57L	-0.057 ± 0.054
D57M	0.132 ± 0.076
D57N	0.069 ± 0.082
D57P	-0.673 ± 0.13
D57Q	-0.108 ± 0.1
D57R	0.018 ± 0.042
D57S	-0.229 ± 0.069
D57T	0.013 ± 0.071
D57V	-0.143 ± 0.048
D57W	-0.245 ± 0.066
D57Y	-0.303 ± 0.13
R58C	-0.36 ± 0.17
R58D	-0.73 ± 0.15
R58E	-0.572 ± 0.14
R58F	-0.519 ± 0.24
R58G	-0.675 ± 0.073
R58I	-0.954 ± 0.26
R58K	0.067 ± 0.13
R58M	-0.409 ± 0.1
R58N	-0.434 ± 0.35
